Experimental data published in the RNAGym collection of RNA variant scans (doi:10.1073/pnas.2313332121).
This sample holds only a part of the variants without activity.

B1: TPR 5TU (parent)
chain: GGAUCUUCUCGAUCUAACAAAAAAGACAAAUCUGCCACAAAGCUUGAGAGCAUCUUCGGAUGCAGAGGCGGCAGCCUUCGGUGGCGCGAUAGCGCCAACGUUCUCAACUAUGACACGCAAAACGCGUGCUCCGUUGAAUGGAGUUUAUCAUG

Variants of: B1
Assay: polymerase ribozyme fitness, log enrichment relative to wild type (log ratio); higher = more active; in vitro selection for triplet polymerase activity
Outline: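 In triplicate, a single round of in vitro selection was run on each mutant library, PCR-built and transcribed, covering one subunit of a heterodimeric triplet polymerase ribozyme. Frozen incubation at −7 °C followed annealing with a biotinylated primer, partner subunit and triplets, and extended constructs were then gel-excised, streptavidin-captured and taken through RT-PCR. Fitness is the logarithm of genotype enrichment over wild-type enrichment, from inverse-variance-weighted replicate averages of Illumina-sequenced inputs and outputs. […] only genotypes with ≥10 input reads and ≥1 read per output were kept.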

Variant | polymerase ribozyme fitness (log ratio)
U44A C93U A120G | -4.11
A12C G58A A66C G88U A110U | ≤ -4.2
G42C U61A C75G C93A | ≤ -4.2
G70A C87U | -3.05
C76A C87U U139G U144A | -2.07
A26U U33G C38U A40C U56A G83A A89G A97G G141C | ≤ -4.2
A47C C96U | 0.15
C18U A22C A40U A89C | -0.248
G58C A60G G81U G88A C108G G117C A119U G143C | ≤ -4.2
G11U C57U G58A U104G C105U | -3.72
A3U C108G A121U | ≤ -4.2
G25U A41U | -3
C76U U77G A147G | ≤ -4.2
A47C U104G G124U | -0.000534
C5U U6C C10U G83C | -2.89
G84U A150G | -2.7
A22U A24U G141U | 1.41
U6A A12U U15C A137C | -3.12
A23U A29U G50A C69G A89C G112C A120U A122U | ≤ -4.2
C76U G94U A115C C125U A147U | ≤ -4.2
A21G U31A A41G C51U C87A C118A U139A C149G | ≤ -4.2
G48A A52C C105U C108U A137C | ≤ -4.2
A3U U144G | 0.419
G25C A28C C32A A110G G126C | ≤ -4.2

Variant | polymerase ribozyme fitness (log ratio)
C54U C103U C123A U148G | ≤ -4.2
A12U C38U C129G | ≤ -4.2
A16C A30U G68C C79G | ≤ -4.2
A52G U53A | -0.907
C10G C116A | -2.96
C8G G92U | -3.57
G68A U90G A150U | ≤ -4.2
A41U G70A | -3.15
U31C G48C G94C A106U | ≤ -4.2
U55A A66G G86A A97G U146G | ≤ -4.2
G59A G100A | ≤ -4.2
A110U A142U A150U | ≤ -4.2
A52G C54U G58C G86A A89U | -3.29
G84A A89G A98G C114U | -2.55
A24U A39U U56A G94A | -3.21
A26U C103A | ≤ -4.2
A3U G62U | -0.505
A19G A49G A52C U55A | -4.18
A28G C51A G80A | ≤ -4.2
U55A C93U A150C | -4.02
U13C C43A A73C G92U | ≤ -4.2
G84A A121G C123U C131U | 0.94
U55A | -0.301
U55G G86U U145A | -0.475

Variant | polymerase ribozyme fitness (log ratio)
A26U C69U | -1.87
A12U C38A G59U C87A A97U | ≤ -4.2
C14U G58U | -0.884
U55A C99G | -1.61
C57A G94C | 0.0611
G59A U82A C95G G136A | -1.25
U56A U78G G112C U139C | ≤ -4.2
C69U A97G G141A | -0.875
U4G A47C C51U G80A G84A G94U A97U | ≤ -4.2
U31G G68A C75G C105G C131G U139G | ≤ -4.2
C10G A52C | ≤ -4.2
A16C A19U C57G A73U A91U G140A U145A | ≤ -4.2
G25C U44A A66G G71A A91U C131U C132G | ≤ -4.2
A19C A66G | -3.95
G59C C95U A106G C116A | 0.288
C85A C108U | -3.66
G67C C93A G133A U151G | ≤ -4.2
U53A U144G | -2.22
U4A A60U A97C U109A | -3
A19U G62A C96G | -1.02
C18G A21U | -0.776
G25A U31A C51U G81C G84U G152U | ≤ -4.2
A39U A49U G59C C132U U148A | ≤ -4.2
A26U G80A | -2.3

Variant | polymerase ribozyme fitness (log ratio)
A19C U61G C93A | -4.05
A21C C27G A64C C85A | ≤ -4.2
A3G A19U G92U A113C | -3.43
C10G U82C G94U U102C A107C A138U | ≤ -4.2
A49U U148C | -3.02
A47G G94U A147G | ≤ -4.2
A21G G46U U55A U151G | ≤ -4.2
U7G C75G G86C | ≤ -4.2
U7A U61A A119U | ≤ -4.2
C27G C32A C93U C96U | -4.06
G34A U55G G88U C105A | ≤ -4.2
U4C U55A G86U | -2.08
A22C A98G | -0.486
G70A U82A C87G A89U C103A C105A | ≤ -4.2
G25U C51U A73U C76U G83U C95U C96U G100U C118G A122G | ≤ -4.2
C76A A142C | -2.3
U109C C116U C131U A147U | -1.68
C32G A40C G83C A110U U111C | ≤ -4.2
C5G G124C | -0.88
G74C U130A | ≤ -4.2
A21G C32U G84U A115U U144C | ≤ -4.2
C14G C54G G71A C99A G100A | ≤ -4.2
C54G C57A G58C G94A | -0.504
A47C C85U G117U | 0.38

Variant | polymerase ribozyme fitness (log ratio)
C85U A107U A138G A142G | ≤ -4.2
C54A U77A C96G U127G | ≤ -4.2
U31G A73G G84A | 0.0111
C105U C116U G133U A142C C149U | -4.08
C63A G84A A121C A142U U145A A150C | ≤ -4.2
C93U C125U U151C G152A | -3.06
U33C C54A U55A G83A C96A C125G G126C U127G | ≤ -4.2
A24U C96G G143U A147U | -3.7
U55A C63G | 0.923
U9C A19G A30G C35A U56A C87G G117U U148C | ≤ -4.2
A23U C76A | -3.84
A47G G88A C96U A120G G143A | ≤ -4.2
C38A A147C | -1.26
U13A A49C G50C C51U G62C C76A G81A C85U G112A G124U | ≤ -4.2
A52G C85U G92A C96A | ≤ -4.2
C10G A29U C95U C108A | ≤ -4.2
C10U A29U U53A C79G C85U C95G A107U | ≤ -4.2
C27A U44A U61A C95U G117C A121U C129G | ≤ -4.2
U55C C57G | 0.125
A23U U139A | ≤ -4.2
G42A C54G C95U A107U C118G | ≤ -4.2
A40G C95U | -2.52
A49G U104C C149G | ≤ -4.2
A52U C85G C123A G140A | ≤ -4.2

Variant | polymerase ribozyme fitness (log ratio)
A17C G62A C85A | -1.77
C27G A40C A66G C79U A91C | -4.03
U9A U13G A29C U82G G84U A91G G94U G128C G133A A138U | ≤ -4.2
G42A A52C G94U A97G U144A | ≤ -4.2
A17C U33A A73U C96U G128A G140A U146G | -3.99
G25U U53A A91C G92A C105G G141C | ≤ -4.2
U61G G124C | -3.25
A137C A150G | -4.17
G71U C85U | -1.67
A21G G25U U56A C85U G94U C123U | -2.71
C10U A16U G34U A39G G94A G141C | -3.56
G67C C79G A97U C116A A142C | ≤ -4.2
C10A C32G C38U C54U A142U | -4.12
G80C U82G C87U C99G | 0.273
A12U C14A G58C C85A | -3.13
C54A G86A | -3.13
G46A G71C U78A | ≤ -4.2
U15G G48A C116U G152A | -2.5
A107U G133C | -3.72
C93G A98C A120U | -3.94
G59A U144C | 0.0653
G94U G143A | -1.67
U4A G84A U101G | -0.65
U45A C87U | -3.28

Variant | polymerase ribozyme fitness (log ratio)
A22U U82C C93G C103G U151G | ≤ -4.2
U15G G50U C93A G143A | -3.35
G86U A89G G92A | ≤ -4.2
G128A U146G | -4.16
A24C U56C A64C C96U | ≤ -4.2
A21U A49G G84U U145G | -2.57
G86U A122G | -2.43
A21U U55A C63U C85U | 0.519
U31G C35A A47C G74U C87G A142C | ≤ -4.2
C57U A73G G74A C114G U135A U151G | ≤ -4.2
C51G G81C C85G C123U G143A | -3.82
A24C G42C G50U A91U C103A U134A | ≤ -4.2
C36G C54G A97G A98U C99U U104A C105G G117A G133C A150U | ≤ -4.2
G50U G62U U101C | -1
A40G U53A C54U U82G C87A A89G A137U A138U U145A | ≤ -4.2
C54U U82A | -0.0444
A41U G46A U61A G84U C105U C118U | -3.26
A17C C85A | -2.22
C36U U56G U61A | ≤ -4.2
U33G G48A U61A A121U A142G | -3.95
A22C C57U | -0.765
U55G U148C | -2.46
A40C C76A | -2.59
